The results in this text go back to publication PMC6697681, “The predominance of nucleotidyl activation in bacterial phosphonate biosynthesis” (Nature Communications, 2019).

The test system of one data set is NCCP(=O)(O)O. The experiment in a line: purified protein. Particulars: saturating CTP (4 mM), 7 mM MgCl2, room temperature.
Data set [1] concerns C[N+](C)(C)CCOP(=O)([O-])O. Briefly: purified protein. The note with it: saturating CTP (4 mM), 7 mM MgCl2, room temperature; fit with substrate inhibition.

As usually defined, the Km is the concentration of substrate that gives half-maximal velocity. For orientation: kcat means the number of substrate molecules converted per active site and unit of time at saturation. As a reminder, the kcat/Km is the turnover number divided by the Michaelis constant.

As to “Ari-PntC (Ari1348) (Lancefieldella rimae ATCC 49626)”, the Michaelis constant (Km) in the data set with NCCP(=O)(O)O was determined as 12 ± 1 µM. For the same substance, in data set [1], the Km was found to be 1000 ± 800 µM, the kcat was 0.7 ± 0.3 s⁻¹ and the kcat/Km was 720 M⁻¹ s⁻¹.

On to Spn-LicC (Streptococcus pneumoniae R6), for which, in the data set with NCCP(=O)(O)O, the Km is 318 ± 129 µM and the turnover number (kcat) was determined as 0.723 ± 0.054 s⁻¹. Further, in data set [1], the Km was 2.36 ± 0.65 µM and the kcat stood at 1.06 ± 0.04 s⁻¹.
